Results taken from the supplement of paper PMC10567573.

B1: SMARCE1 (parent)
chain: YHNSPAYLAYINAKSRAEAALEEE
B2: ZNF649 (parent)
chain: LVAHQRYHTGKTPFVCPECGQPCS

Variants of: B1
Test: protein stability index of a GFP-peptide fusion (GPS, HEK-293T) (PSI 1-6); higher = more stable
Details: c terminus: a fixed tail appended
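Note: lentivirally expressed fusions sorted by FACS into six bins by GFP to DsRed ratio, PSI derived from sequencing read proportions per bin multiplied by bin number.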

Protein stability index of substitutions, site by site:
N3: Y 2.87; M 2.06; F 1.81; C 1.34; R 2.26; A 2.05; G 2.28; Q 1.57; S 1.81; V 2.03; P 1.55; E 2.22; W 1.89; D 1.89; I 2.08; L 1.95; T 2.19; K 2.89; H 1.69
A9: D 1.42; C 1.77; G 2.19; E 1.56; F 1.94
P5: F 3.01; Y 2.31; G 3.04; N 2.56; A 2.76; K 2.06; H 3.81; R 2.99; C 3.56; I 2.05; M 2.65; E 1.82; T 2.46; V 3.69; S 2.67; Q 4.02; D 2.15; L 2.92; W 2.98
S4: V 2.44; Y 2.09; H 1.91; D 3.31; P 1.91; R 2.19; N 2.23; A 3.12; W 2.41; M 3.39; T 2.6; F 2.04; K 1.77; E 2.89; L 2.35; I 2; G 2.45; C 1.56; Q 3.3
Y7: E 3.06; A 2.66; G 2.31; D 3.12; V 2.91; H 2.78; R 2.76; S 2.76; F 2.64; I 2.47; N 2.31; W 2.31; Q 2.77; C 2.26; M 2.4; P 2.98; L 2.28; K 3; T 2.95
A6: T 1.78; P 1.94; D 2.12; K 2.22; Y 2.23; I 2.61; H 2.3; R 2.14; F 2.06; L 1.81; C 1.77; N 1.81; G 2.37; Q 2.11; M 2.07; V 2.02; W 2.21; E 2.58; S 2.43
Y1: L 4.97; H 4.6; A 5.18; T 5.26; N 4.85; W 4.52; C 4.74; P 5.16; R 4.86; G 4.65; V 4.95; D 5.28; E 5.26; K 4.96; S 4.85; M 5.08; F 2.02; Q 5.29; I 4.78
L8: F 2.93; R 2.47; H 2.12; Q 3.47; I 3.09; N 3.65; S 3.08; D 2.22; C 3.05; E 1.8; M 2.23; T 2.81; K 3.83; P 1.81; V 2.49; G 1.69; Y 2.5; W 2.04; A 3.39
H2: N 3.77; I 2.2; V 2.84; C 2.12; T 1.7; G 2.65; W 2.66; Q 1.7; Y 4.42; K 5.07; D 4.99; A 2.37; P 1.84; E 4.87; S 2.5; M 1.96; R 4.83; L 2.09; F 2.79

Variants of: B2
Test: as above
Details: c terminus: a fixed tail appended

Protein stability index of substitutions, site by site:
G20: T 3.11; I 2.27; W 2.55; Y 2.52; R 2.52; F 2.85; E 3.07; H 2.88; S 3.13; L 2.59; K 2.86; V 2.47; D 3.48; Q 3.14; M 3.03; N 3.25; P 3.12; A 3.06; C 2.74
E18: P 1.91; C 2.82; Q 3.31; T 2.4; K 2.54; Y 2.27; N 2.34; F 2.56; W 2.7; M 2.58; D 3.18; R 2.18; V 2.31; I 2.61; S 3.11; G 1.8; H 2.38; L 2.66; A 2.99
C16: N 2.88; D 3.8; F 2.28; A 2.35; E 3.01; R 2.89; I 2.14; S 3.16; H 2.64; G 2.91; M 2.72; Q 3.03; Y 2.37; T 2.27; L 2.5; W 1.86; P 3.48; V 2.58; K 2.75
C23: Y 2.31; F 2.49; Q 2.73; G 2.87; A 3.27; R 3.19; H 3.15; V 2.99; K 3.12; L 2.67; D 3.72; W 2.42; P 3.47; N 3.06; I 2.98; S 2.56; T 3.35; E 3.09; M 2.54
S24: G 3.54; D 3.76; M 2.67; C 3.13; F 3.71; A 2.94; R 2.68; P 3.57; W 3.08; V 3.13; K 3.23; H 3.23; Y 2.62; L 2.82; N 2.97; I 2.77; Q 3.12; E 3.36; T 3.36
P17: L 2.26; G 2.92; H 2.86; C 2.98; R 2.26; Y 2.48; K 3.37; I 2.73; T 3.04; M 2.77; E 3.16; A 2.84; N 3.48; V 2.59; S 3.37; Q 3.51; W 2.37; F 2.16; D 3.35
C19: F 2.06; L 2.39; Y 2.08; D 3.63; N 2.92; I 2.58; T 3.26; E 3.03; S 3.15; G 3.05; K 3.14; M 2.58; W 1.81; A 2.89; P 3.21; V 2.42; Q 2.92; H 2.92; R 2.51
P22: Q 4.03; T 3.33; Y 3.84; D 3.69; K 3.6; C 3.85; I 3.25; H 3.41; F 3.1; N 3.77; R 3.28; L 3.13; M 2.9; E 3.75; A 3.58; W 2.38; S 3.53; V 3.5; G 3.35
Q21: D 3.67; A 3.06; M 2.44; C 3.08; V 3.5; G 3.93; R 2.62; P 2.9; S 2.86; N 2.66; H 3.09; Y 2.77; L 2.74; E 3.59; F 2.21; K 3.19; T 3.24; I 2.58; W 2.97
V15: T 3.11; Q 3.36; S 3.19; R 3.06; W 2.67; Y 2.96
